Like-named read-outs stand apart in the source and are kept apart here. Where a SMILES comes first, the peptide text is derived from it. [ ]: non-standard residue; d: D form. The star is where a group is joined. NMeK = CN[C@@H](CCCCN)C(=O)O; Pent4ynoyl = C#CCCC(=O)*
Tests used:
[1] = biological target: T1, αvβ3-integrin (Homo sapiens, UniProt P05106+P06756); set-up: method as in PMID 34559266; details: ELISA; read-out: IC50 (95% confidence interval) αvβ3; cited from earlier work
[2] = biological target: T2, α5β1-integrin (Homo sapiens, UniProt P05556+P08648); set-up: method as in PMID 34559266; details: ELISA; read-out: IC50 (95% confidence interval) α5β1; cited from earlier work
[3] = biological target: T3, αvβ8-integrin (Homo sapiens, UniProt P06756+P26012); set-up: method as in PMID 34559266; details: ELISA; read-out: IC50 (95% confidence interval) αvβ8; cited from earlier work
[4] = biological target: T4, αvβ6-integrin (Homo sapiens, UniProt P06756+P18564); set-up: method as in PMID 34559266; details: ELISA; read-out: IC50 (95% confidence interval) αvβ6; cited from earlier work
[5] = biological target: T4, αvβ6-integrin; assay: ELISA on immobilized integrins, αvβ6; type: binding
Protocol: (§1) The integrin affinities of the monomers were determined using an established ELISA protocol,[36] and expressed as 50% inhibitory concentrations (IC50, Table 1).
(§2) Unless otherwise noted, the materials and the instrumentation used (analytical and preparative HPLC, ESI-MS, gamma counter, centrifuge), and the experimental procedures (^68Ga radiolabeling and radio-TLC for quality control, determination of log D7.4, cultivation of H2009 human lung adenocarcinoma cells, generation of tumor xenografts in CB17 SCID mice, small-animal PET, and biodistribution) were described before.[19] All animal experiments have been carried out according to applicable law and institutional guidelines of Technical University of Munich, and were approved by the responsible local authority (Regierung von Oberbayern). The H2009 cells were regularly authenticated and tested for mycoplasma contamination. The affinities of the pentynoic amide functionalized peptides were determined employing a well-established ELISA protocol on immobilized integrins.[36] TRAP-triazide,[38]FF (previously termed AvB6),[32] and YY (also referred to as Tyr2-alkyne)[33] were synthesized as described previously. RP-HPLC for assessment of compound polarity was done on a 150 × 4.6 mm ReproSil-Pur 120 C18-AQ 5 μm column, with a flow of 0.75 mL min^−1 and a gradient of 10–50% MeCN in water, both containing 0.1% trifluoroacetic acid, within 15 min. The required ^natGa-complexes of the peptide trimers were synthesized by reaction with equimolar amounts of aq. GaCl3 as described.[19]

[6] = biological target: T2, α5β1-integrin; assay: ELISA on immobilized integrins, α5β1; type: binding; details: read-out: IC50 (95% confidence interval) α5β1
Protocol: as §1
as §2, with “RP-HPLC for assessment of compound polarity was done on a 150 × 4.6 mm ReproSil-Pur 120 C18-AQ 5 μm column, with a flow of 0.75 mL min^−1 and a gradient of 10–50% MeCN in water, both containing 0.1% trifluoroacetic acid, within 15 min. The required ^natGa-complexes of the peptide trimers were synthesized by reaction with equimolar amounts of aq. GaCl3 as described.[19]” left out

[7] = biological target: T1, αvβ3-integrin; assay: ELISA on immobilized integrins, αvβ3; type: binding; details: read-out: IC50 (95% confidence interval) αvβ3
Protocol: as §1
as §2, with “RP-HPLC for assessment of compound polarity was done on a 150 × 4.6 mm ReproSil-Pur 120 C18-AQ 5 μm column, with a flow of 0.75 mL min^−1 and a gradient of 10–50% MeCN in water, both containing 0.1% trifluoroacetic acid, within 15 min. The required ^natGa-complexes of the peptide trimers were synthesized by reaction with equimolar amounts of aq. GaCl3 as described.[19]” left out

[8] = biological target: T3, αvβ8-integrin; assay: ELISA on immobilized integrins, αvβ8; type: binding; details: read-out: IC50 (95% confidence interval) αvβ8
Protocol: as §1
as §2, with “RP-HPLC for assessment of compound polarity was done on a 150 × 4.6 mm ReproSil-Pur 120 C18-AQ 5 μm column, with a flow of 0.75 mL min^−1 and a gradient of 10–50% MeCN in water, both containing 0.1% trifluoroacetic acid, within 15 min. The required ^natGa-complexes of the peptide trimers were synthesized by reaction with equimolar amounts of aq. GaCl3 as described.[19]” left out

T1 sequence (P06756 31-1048): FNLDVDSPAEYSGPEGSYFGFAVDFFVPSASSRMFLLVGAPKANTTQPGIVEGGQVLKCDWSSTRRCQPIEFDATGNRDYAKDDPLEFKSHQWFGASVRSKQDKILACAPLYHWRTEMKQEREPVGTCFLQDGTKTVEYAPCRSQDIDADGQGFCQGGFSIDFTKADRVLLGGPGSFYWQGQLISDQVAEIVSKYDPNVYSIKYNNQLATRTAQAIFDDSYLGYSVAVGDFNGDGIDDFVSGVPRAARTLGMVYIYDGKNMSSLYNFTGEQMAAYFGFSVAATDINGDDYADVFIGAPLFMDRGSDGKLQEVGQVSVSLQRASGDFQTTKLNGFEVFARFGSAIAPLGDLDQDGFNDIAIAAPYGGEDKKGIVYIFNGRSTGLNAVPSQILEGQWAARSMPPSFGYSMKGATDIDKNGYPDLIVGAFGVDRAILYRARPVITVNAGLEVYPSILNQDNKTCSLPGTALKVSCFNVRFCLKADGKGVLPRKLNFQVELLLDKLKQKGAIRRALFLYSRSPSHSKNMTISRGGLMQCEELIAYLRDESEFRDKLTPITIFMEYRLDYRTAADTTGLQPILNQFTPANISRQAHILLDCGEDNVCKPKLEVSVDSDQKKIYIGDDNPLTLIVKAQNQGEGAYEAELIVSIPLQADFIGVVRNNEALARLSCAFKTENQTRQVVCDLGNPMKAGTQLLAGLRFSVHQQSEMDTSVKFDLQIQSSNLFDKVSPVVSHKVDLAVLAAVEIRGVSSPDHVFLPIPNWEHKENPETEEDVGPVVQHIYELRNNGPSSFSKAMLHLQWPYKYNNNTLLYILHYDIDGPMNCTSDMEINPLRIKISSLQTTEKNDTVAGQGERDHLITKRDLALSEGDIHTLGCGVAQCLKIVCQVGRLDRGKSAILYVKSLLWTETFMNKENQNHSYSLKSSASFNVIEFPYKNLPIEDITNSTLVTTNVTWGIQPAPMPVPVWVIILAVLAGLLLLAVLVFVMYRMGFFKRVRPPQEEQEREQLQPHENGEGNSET
T1 sequence (P05106 27-788): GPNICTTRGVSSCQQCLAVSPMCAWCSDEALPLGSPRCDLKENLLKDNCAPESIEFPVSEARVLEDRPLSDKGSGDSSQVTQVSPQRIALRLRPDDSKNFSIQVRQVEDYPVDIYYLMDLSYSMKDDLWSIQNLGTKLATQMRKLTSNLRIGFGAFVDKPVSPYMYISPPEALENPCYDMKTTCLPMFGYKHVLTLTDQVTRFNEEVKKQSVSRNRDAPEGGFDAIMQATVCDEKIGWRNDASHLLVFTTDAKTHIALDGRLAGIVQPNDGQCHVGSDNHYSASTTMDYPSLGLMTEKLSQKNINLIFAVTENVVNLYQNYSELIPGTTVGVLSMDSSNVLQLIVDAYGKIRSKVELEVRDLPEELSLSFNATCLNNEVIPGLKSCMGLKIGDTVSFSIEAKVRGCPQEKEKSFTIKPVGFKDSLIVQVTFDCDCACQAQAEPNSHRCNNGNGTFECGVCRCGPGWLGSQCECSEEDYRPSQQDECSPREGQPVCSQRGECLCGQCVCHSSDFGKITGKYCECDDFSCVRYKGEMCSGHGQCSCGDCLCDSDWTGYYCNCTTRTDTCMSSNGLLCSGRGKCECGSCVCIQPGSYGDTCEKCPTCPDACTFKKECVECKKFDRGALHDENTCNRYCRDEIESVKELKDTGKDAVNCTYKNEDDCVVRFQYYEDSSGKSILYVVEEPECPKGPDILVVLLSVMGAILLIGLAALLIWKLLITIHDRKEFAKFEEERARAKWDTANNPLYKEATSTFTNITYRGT
T2 sequence (P08648 42-995 limits assumed): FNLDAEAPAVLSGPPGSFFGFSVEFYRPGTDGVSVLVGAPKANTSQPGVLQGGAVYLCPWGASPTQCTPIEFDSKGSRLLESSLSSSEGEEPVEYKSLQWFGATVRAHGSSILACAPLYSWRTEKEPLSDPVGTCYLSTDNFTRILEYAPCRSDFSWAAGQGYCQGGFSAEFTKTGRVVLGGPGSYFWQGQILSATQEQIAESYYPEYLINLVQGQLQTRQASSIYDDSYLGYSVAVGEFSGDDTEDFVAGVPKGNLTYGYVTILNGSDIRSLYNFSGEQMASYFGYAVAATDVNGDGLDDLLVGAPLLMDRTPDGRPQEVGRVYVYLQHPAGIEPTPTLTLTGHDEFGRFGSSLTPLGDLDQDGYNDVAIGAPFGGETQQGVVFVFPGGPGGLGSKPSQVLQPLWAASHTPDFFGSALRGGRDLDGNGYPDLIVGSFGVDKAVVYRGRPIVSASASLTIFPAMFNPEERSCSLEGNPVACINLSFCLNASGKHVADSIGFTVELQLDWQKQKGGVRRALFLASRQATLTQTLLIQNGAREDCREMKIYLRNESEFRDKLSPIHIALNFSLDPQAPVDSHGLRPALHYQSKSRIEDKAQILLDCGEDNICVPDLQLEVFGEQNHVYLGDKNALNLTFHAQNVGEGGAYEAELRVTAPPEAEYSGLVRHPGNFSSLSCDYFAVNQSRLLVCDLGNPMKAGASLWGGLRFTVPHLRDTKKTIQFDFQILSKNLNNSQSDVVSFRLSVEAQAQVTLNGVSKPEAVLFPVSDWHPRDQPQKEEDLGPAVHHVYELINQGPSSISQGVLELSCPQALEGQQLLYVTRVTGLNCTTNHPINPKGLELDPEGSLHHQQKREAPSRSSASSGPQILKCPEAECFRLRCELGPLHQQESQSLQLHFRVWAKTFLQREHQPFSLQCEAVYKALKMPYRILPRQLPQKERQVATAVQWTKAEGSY
T2 sequence (P05556 21-728 limits assumed): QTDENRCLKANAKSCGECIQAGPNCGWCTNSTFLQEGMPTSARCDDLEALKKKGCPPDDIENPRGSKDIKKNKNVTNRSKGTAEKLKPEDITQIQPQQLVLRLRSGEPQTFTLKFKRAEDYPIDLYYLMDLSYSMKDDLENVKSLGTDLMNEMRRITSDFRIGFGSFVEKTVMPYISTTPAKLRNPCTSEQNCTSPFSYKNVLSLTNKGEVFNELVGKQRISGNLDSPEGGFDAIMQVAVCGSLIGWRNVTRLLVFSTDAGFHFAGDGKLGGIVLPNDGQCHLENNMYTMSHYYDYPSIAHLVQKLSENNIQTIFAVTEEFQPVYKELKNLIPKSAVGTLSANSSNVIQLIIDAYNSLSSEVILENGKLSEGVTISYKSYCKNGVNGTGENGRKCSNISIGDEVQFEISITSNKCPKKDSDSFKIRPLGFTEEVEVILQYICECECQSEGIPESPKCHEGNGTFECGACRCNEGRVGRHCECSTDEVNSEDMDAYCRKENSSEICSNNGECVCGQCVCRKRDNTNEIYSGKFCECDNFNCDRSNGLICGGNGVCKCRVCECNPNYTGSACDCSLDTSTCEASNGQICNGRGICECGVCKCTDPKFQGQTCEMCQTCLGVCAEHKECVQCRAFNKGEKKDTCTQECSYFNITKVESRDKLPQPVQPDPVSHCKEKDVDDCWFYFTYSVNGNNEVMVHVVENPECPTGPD
T3 sequence (P06756 31-992 limits assumed): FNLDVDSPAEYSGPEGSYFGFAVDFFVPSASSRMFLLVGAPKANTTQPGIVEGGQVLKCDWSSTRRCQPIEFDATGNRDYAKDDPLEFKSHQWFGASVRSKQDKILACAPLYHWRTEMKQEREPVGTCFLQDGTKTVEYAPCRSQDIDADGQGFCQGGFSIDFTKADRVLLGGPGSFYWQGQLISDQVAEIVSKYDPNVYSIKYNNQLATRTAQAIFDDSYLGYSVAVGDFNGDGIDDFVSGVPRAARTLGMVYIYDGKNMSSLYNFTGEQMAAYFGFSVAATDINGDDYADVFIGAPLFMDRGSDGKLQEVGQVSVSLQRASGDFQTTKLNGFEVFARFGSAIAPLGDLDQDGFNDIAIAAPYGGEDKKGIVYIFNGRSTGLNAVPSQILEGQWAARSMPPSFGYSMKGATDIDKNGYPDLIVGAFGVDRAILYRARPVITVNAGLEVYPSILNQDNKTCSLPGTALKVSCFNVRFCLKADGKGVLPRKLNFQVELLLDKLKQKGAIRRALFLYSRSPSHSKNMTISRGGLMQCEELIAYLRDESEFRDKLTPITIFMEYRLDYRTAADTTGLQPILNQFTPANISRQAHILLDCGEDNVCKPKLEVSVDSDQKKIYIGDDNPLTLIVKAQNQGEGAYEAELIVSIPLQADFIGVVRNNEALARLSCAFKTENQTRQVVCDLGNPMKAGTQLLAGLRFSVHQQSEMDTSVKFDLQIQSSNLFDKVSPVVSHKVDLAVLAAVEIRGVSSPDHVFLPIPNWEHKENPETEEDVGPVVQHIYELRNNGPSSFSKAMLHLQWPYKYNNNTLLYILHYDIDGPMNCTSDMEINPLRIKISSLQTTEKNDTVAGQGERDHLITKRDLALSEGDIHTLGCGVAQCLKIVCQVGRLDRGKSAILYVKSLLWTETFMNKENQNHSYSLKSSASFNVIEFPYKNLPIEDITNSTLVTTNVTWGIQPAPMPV
T3 sequence (P26012 43-684 limits assumed): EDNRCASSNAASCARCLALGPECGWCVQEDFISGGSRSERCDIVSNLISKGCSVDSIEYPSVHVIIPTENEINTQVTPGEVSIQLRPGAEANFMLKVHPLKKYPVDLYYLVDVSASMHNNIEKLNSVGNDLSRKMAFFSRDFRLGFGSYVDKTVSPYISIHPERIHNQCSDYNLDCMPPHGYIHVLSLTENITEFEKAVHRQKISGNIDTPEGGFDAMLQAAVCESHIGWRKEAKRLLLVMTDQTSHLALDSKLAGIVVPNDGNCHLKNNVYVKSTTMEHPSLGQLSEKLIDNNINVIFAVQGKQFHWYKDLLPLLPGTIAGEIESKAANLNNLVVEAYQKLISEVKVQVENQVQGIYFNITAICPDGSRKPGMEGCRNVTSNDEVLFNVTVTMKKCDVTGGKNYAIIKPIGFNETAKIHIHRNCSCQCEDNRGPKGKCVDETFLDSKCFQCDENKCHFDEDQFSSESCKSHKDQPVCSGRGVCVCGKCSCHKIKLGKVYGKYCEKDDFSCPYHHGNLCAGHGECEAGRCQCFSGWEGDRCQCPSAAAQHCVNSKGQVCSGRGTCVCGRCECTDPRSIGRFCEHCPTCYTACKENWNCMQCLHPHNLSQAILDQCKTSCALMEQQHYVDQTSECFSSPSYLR

Row | IC50 ([5]; ELISA, read-out: IC50 (95% confidence interval) αvβ6) [nM] | αvβ6-selectivity over α5β1 ([5]; IC50-based) | αvβ6-selectivity over αvβ3 ([5]; IC50-based) | αvβ6-selectivity over αvβ8 ([5]; IC50-based) | IC50 [6] [nM] | IC50 [7] [nM] | IC50 [8] [nM] | Compound | IC50 [1] [nM] | IC50 [2] [nM] | IC50 [3] [nM] | IC50 [4] [nM]
1 |  |  |  |  |  |  |  | YY: cyclo[YRGDLAYp(NMe)K] bearing 4-pentynoic amide on the Lys side chain; alkyne-functionalized peptide monomer (cyclo(YRGDLAY[dP][NMeK](Pent4ynoyl)); SMILES C#CCCC(=O)NCCCC[C@H]1C(=O)N[C@@H](Cc2ccc(O)cc2)C(=O)N[C@@H](CCCNC(=N)N)C(=O)NCC(=O)N[C@@H](CC(=O)O)C(=O)N[C@@H](CC(C)C)C(=O)N[C@@H](C)C(=O)N[C@@H](Cc2ccc(O)cc2)C(=O)N2CCC[C@@H]2C(=O)N1C) | 219 | 150 | 26 | 0.84
2 | 3.3 | 35 | 190 | 6.9 | 114 | 630 | 23 | C#CCCC(=O)NCCCC[C@H]1C(=O)N[C@@H](Cc2ccc(O)cc2)C(=O)N[C@@H](CCCNC(=N)N)C(=O)NCC(=O)N[C@@H](CC(=O)O)C(=O)N[C@@H](CC(C)C)C(=O)N[C@@H](C)C(=O)N[C@@H](Cc2ccccc2)C(=O)N2CCC[C@@H]2C(=O)N1C [YF] (cyclo(YRGDLAF[dP][NMeK](Pent4ynoyl))) |  |  |  | 
3 |  |  |  |  |  |  |  | FF: cyclo[FRGDLAFp(NMe)K] bearing 4-pentynoic amide on the Lys side chain; alkyne-functionalized peptide monomer | 424 | 226 | 32 | 0.17
